We go through 26 molecules from US8114968 (DYAX, dated 2012).

The target of assay [1] is T1, human MMP-12 (human, UniProt P39900 106-470, limits assumed). The assay can be described thus: cell-based or functional assay.
For assay [2], the target named is T1, human MMP-12. The assay can be described thus: BIACORE, coated Fab.
In assay [3] the target is T1, human MMP-12. The assay can be described thus: cell-based or functional assay. This is another data set of the same source.
The next assay addresses murine MMP-12 (mouse, UniProt P34960 110-473, limits assumed). The assay can be described thus: cell-based or functional assay.

Changes are numbered by the printed parent chain.

Sequence of murine MMP-12 (P34960 110-473 limits assumed): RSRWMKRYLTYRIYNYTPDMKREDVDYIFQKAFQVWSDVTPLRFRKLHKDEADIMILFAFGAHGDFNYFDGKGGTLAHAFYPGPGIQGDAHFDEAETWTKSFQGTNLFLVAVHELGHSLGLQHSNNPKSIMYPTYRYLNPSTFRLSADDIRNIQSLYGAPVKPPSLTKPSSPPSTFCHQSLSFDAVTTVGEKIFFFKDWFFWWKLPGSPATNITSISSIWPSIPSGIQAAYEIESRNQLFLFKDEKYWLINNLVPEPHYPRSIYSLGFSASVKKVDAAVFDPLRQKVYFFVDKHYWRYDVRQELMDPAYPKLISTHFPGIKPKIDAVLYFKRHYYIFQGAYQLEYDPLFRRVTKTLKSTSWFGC
T1 sequence (P39900 106-470 limits assumed): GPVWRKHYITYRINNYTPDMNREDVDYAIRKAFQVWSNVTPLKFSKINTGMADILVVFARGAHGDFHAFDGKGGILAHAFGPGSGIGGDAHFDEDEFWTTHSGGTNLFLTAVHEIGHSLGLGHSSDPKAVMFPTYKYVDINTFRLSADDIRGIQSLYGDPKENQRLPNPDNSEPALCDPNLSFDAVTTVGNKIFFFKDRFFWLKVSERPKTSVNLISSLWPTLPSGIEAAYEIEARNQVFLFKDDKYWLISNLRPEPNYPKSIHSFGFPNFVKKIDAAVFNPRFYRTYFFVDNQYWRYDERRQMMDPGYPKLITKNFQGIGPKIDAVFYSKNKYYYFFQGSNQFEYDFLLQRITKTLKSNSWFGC

B1: 539A-M0013-D11 Fab (Fab, V domains shown)
VH: EVQLLESGGGLVQPGGSLRLSCAASGFTFSSYPMWWVRQAPGKGLEWVSGIVPSGGVTIYADSVKGRFTISRDNSKNTLYLQMNSLRAEDTAVYYCARVGWLASSDYYYYMDVWGKGTTVTVSS
VL: DIQMTQSPSSLSASVGDRITISCQASQDIDNYLNWYQQRSGKAPKLLIYDAYNLKAGVPSRFRGSRSGTDFFLTISSLQPEDFATYYCQQSYRAPLTFGGGTKVEIK
Regarding B1, the “IC50 (nM), large scale purified Fabs” value in the assay with human MMP-12 [1] worked out at 20.3 nM.

B2: 539A-M0019-C05 Fab (Fab, V domains shown)
VH: EVQLLESGGGLVQPGGSLRLSCAASGFTFSWYAMVWVRQAPGKGLEWVSYIGSSGGVTGYADSVKGRFTISRDNSKNTLYLQMNSLRAEDTAVYYCARQKRVDYYDSSGYPTNAEFDYWGQGTLVTVSS
VL: QYELTQPRSVSGSPGQSVTISCTGSSSDVAGFYYVSWYQQHPGKAPKLMIRDVNDRPSGVSNRFSGSKSGNTASLTIAGLQTEDEAVYYCSSTSRSDTRVIFGGGTKLTV
With B2, the “IC50 (nM), large scale purified Fabs” value in the assay with human MMP-12 [1] came to 93 nM.

B3: 539A-M0019-C05 IgG (antibody, V domains shown)
VH: B2 VH
VL: B2 VL
B3: the “IC50 (nM), IgGs” value with human MMP-12 [1] came to 24.5 nM.

B4: 539A-M0013-G12 Fab (Fab, V domains shown)
VH: EVQLLESGGGLVQPGGSLRLSCAASGFTFSWYHMFWVRQAPGKGLEWVSGISSSGGYTHYADSVKGRFTISRDNSKNTLYLQMNSLRAEDTAVYYCATREGMLYDYVWGENYMDVWGKGTTVTVSS
VL: DIQMTQSPSSLSASVGDRVTITCQASQDTYNRLHWYQQKPGKAPKLLIYDAVNLNRGVPSRFRGSGSGTNYILIITNLQPEDTATYYCQHSDDLSLAFGGGTKVEIK
Turning to B4, the “IC50 (nM), large scale purified Fabs” value with human MMP-12 [1] worked out at 6.7 nM.

B5: 539A-M0014-C09 IgG (antibody, V domains shown)
VH: EVQLLESGGGLVQPGGSLRLSCAASGFTFSDYSMHWVRQAPGKGLEWVSGIGPSGGPTFYADSVKGRFTISRDNSKNTLYLQMNSLRAEDTAVYYCARGEYSSSDYYYYYGMDVWGQGTTVTVSS
VL: DIQMTQSPATLSLSPGERATLSCGASQNIDGYYLAWYQQKPGQAPSLLIYDASSRSTGVPDRFSGSGSGTDFTLTISRLEPEDFAVYYCQHYGNSLWTFGQGTKVEIK
As for B5, in the assay with human MMP-12 [1], the “IC50 (nM), IgGs” value was determined as 43.3 nM.

B6: 539A-M0014-C09 Fab (Fab, V domains shown)
VH: B5 VH
VL: B5 VL
Take B6: in the assay with human MMP-12 [1], the “IC50 (nM), large scale purified Fabs” value is 36.9 nM.

B7: 539A-M0013-H06 Fab (Fab, V domains shown)
VH: EVQLLESGGGLVQPGGSLRLSCAASGFTFSAYEMDWVRQAPGKGLEWVSGISSSGGPTYYADSVKGRFTISRDNSKNTLYLQMNSLRAEDTAVYYCARVGGWELLQDYYYYMDVWGKGTTVTVSS
VL: DIQMTQSPATLSLSPGERATLSCRASHSVDNLAWYQQQPGQAPRLLIYDVSYRATGIPARFSGSGSGTDFTLTISSLEPEDFAVYYCQQRNNWPLSLTFGGGTKVEIK
As for B7, the “IC50 (nM), large scale purified Fabs” value with human MMP-12 [1] came to 11.9 nM.

B8: 539A-M0014-G11 Fab (Fab, V domains shown)
VH: EVQLLESGGGLVQPGGSLRLSCAASGFTFSWYVMVWVRQAPGKGLEWVSSIYSSGGPTKYADSVKGRFTISRDNSKNTLYLQMNSLRAEDTAVYYCAKEGGVYGGPELYYYYYGMDVWGQGTTVTVSS
VL: QYELTQPPSASGTPGQRITISCSGSSSNLGSNPVQWYQQLPGSAPKLLIHTNTHRPSGVPDRFSGSKSVTSASLAISGLQSEDEAEYYCATWDDSLNGGVFGGGTKLTVL
For the molecule B8, the “IC50 (nM), large scale purified Fabs” value in the assay with human MMP-12 [1] turned out to be 35 nM.

B9: 539A-M0014-G11 IgG (antibody, V domains shown)
VH: B8 VH
VL: B8 VL
Take B9: the “IC50 (nM), IgGs” value with human MMP-12 [1] amounted to 12.3 nM.

B10: 539A-M0022-C07 Fab (Fab, V domains shown)
VH: EVQLLESGGGLVQPGGSLRLSCAASGFTFSIYQMWWVRQAPGKGLEWVSSISSSGFTWYADSVKGRFTISRDNSKNTLYLQMNSLRAEDTAVYYCTTEDIGYYYGMDVWGQGTTVTVSS
VL: DIQMTQSPATLSVSPGERATLSCRASQNVRNYLAWYQQKPGQAPRLLIYDASKRATGIPARFSGSGSGTDFTLTISGLEPEDFAVYYCQQRSNWPTFGPGTKVDIK
For the molecule B10, in the assay with human MMP-12 [1], the “IC50 (nM), large scale purified Fabs” value is 24.2 nM.

B11: 539A-M0022-C07 IgG (antibody, V domains shown)
VH: B10 VH
VL: B10 VL
With B11, the “IC50 (nM), IgGs” value with human MMP-12 [1] was 13.2 nM.

B12: 539A-M0016-H05 Fab (Fab, V domains shown)
VH: EVQLLESGGGLVQPGGSLRLSCAASGFTFSWYAMSWVRQAPGKGLEWVSRIVPSGGDTGYADSVKGRFTISRDNSKNTLYLQMNSLRAEDTAVYYCATFRGIMYGDYGSSYWYFDLWGRGTLVTVSS
VL: DIQMTQSPATLSLSPGERATLSCRASQSVSSYLAWYQQKPGQAPRLLIYDASNRATGIPARFSGSGSGTDFTLTISSLEPEDFAVYYCQQRSNWPLTFGGGTKVEIK
B12: the “IC50 (nM), large scale purified Fabs” value with human MMP-12 [1] worked out at 56.6 nM.

B13: 539A-M0016-H05 IgG (antibody, V domains shown)
VH: B12 VH
VL: B12 VL
Consider B13, for which the “IC50 (nM), IgGs” value with human MMP-12 [1] came to 32.9 nM.

B14: 539A-M0016-A11 Fab (Fab, V domains shown)
VH: EVQLLESGGGLVQPGGSLRLSCAASGFTFSEYQMAWVRQAPGKGLEWVSSIYPSGGHTHYADSVKGRFTISRDNSKNTLYLQMNSLRAEDTAVYYCAKESYYDFWSGYYFDYWGQGTLVTVSS
VL: DIQMTQSPSSLSASVRDRVTITCRTSQNINTYLNWYYQAPGRAPKLLIFGVSSLHRGVSSRFSGSGDGTEFTLTISSLQPEDIGTYFCQQSYSSPWTFGQGTKVEIK
Turning to B14, the “IC50 (nM), large scale purified Fabs” value in the assay with human MMP-12 [1] amounted to 8.8 nM.

B15: 539B-M0065-H05 (Fab, V domains shown)
VH: EVQLLESGGGLVQPGGSLRLSCAASGFTFSYYGMGWVRQAPGKGLEWVSVISSSGGFTFYADSVKGRFTISRDNSKNTLYLQMNSLRAEDTAVYYCAKDIRGAYSSGLFDYWGRGTLVTVSS
VL: DIQMTQSPSSLSASVGDRVTITCRANQSIYTYLNWYQQKPGKAPELLIYAASSLQSGVPSRFSGSGSGTDFTLTISSLQPEDFATYYCQQAGIFGQGTKLEIK
Regarding B15, the affinity in the assay with human MMP-12 [2], expressed as Kd, was 2.19 nM. Also, in the assay with human MMP-12 [3], the “IC50hu” value was determined as 0.7 nM.

B16: 539B-M0069-D10 (Fab, V domains shown)
VH: B15 VH with Y31L, G33H, G35H, V50G, S52G, S53P, F57W, F59I
VL: B15 VL
Consider B16, for which the IC50 m with murine MMP-12 is < 10 nM (not printed; inferred). In the assay with human MMP-12 [3], the “IC50hu” value amounted to 2.3 nM.

B17: 539B-M0065-E12 (Fab, V domains shown)
VH: B15 VH with Y31W, G33N, G35H, V50G, S53P, F57N, F59M
VL: B15 VL
Take B17: the IC50 m with murine MMP-12 is < 10 nM (not printed; inferred). Besides, in the assay with human MMP-12 [3], the “IC50hu” value came out at 1.4 nM.

B18: 539B-M0071-D09 (Fab, V domains shown)
VH: B15 VH with Y31P, G33W, G35H, V50G, F57D, F59L
VL: B15 VL
Regarding B18, the IC50 m in the assay with murine MMP-12 is < 10 nM (not printed; inferred). The “IC50hu” value with human MMP-12 [3] was found to be 2.4 nM.

B19: 539B-M0065-G03 (Fab, V domains shown)
VH: B15 VH with Y31W, S52V, F59Q
VL: B15 VL
On to B19, for which, in the assay with murine MMP-12, the IC50 m is < 10 nM (not printed; inferred). Moreover, in the assay with human MMP-12 [3], the “IC50hu” value was found to be 3 nM.

B20: 539B-M0071-H03 (Fab, V domains shown)
VH: B15 VH with Y31P, G33W, G35H, V50G, S52G, S53P, F57P, V64I
VL: B15 VL
Turning to B20, in the assay with human MMP-12 [2], the Kd stood at 1.03 nM. Besides, the IC50 m with murine MMP-12 was < 10 nM (not printed; inferred). Besides, in the assay with human MMP-12 [3], the “IC50hu” value is 0.2 nM.

B21: 539B-M0067-B06 (Fab, V domains shown)
VH: B15 VH with Y31W, G33W, G35H, V50G, S52V, F57T, F59I
VL: B15 VL
In the case of B21, the equilibrium dissociation constant (Kd) with human MMP-12 [2] worked out at 0.62 nM. In addition, the IC50 m with murine MMP-12 was < 10 nM (not printed; inferred). In addition, the “IC50hu” value with human MMP-12 [3] worked out at 0.7 nM.

B22: 539B-M0069-C02 (Fab, V domains shown)
VH: B15 VH with G33N, G35H, V50G, S52G, S53P, F57G, F59L
VL: B15 VL
For the molecule B22, binding with human MMP-12 [2] was put at a Kd of 6.97 nM. In the assay with murine MMP-12, the IC50 m is ~10 nM (not printed; inferred). For the same molecule, the “IC50hu” value in the assay with human MMP-12 [3] stood at 1.6 nM.

B23: 539A-M0020-B01 Fab (Fab, V domains shown)
VH: EVQLLESGGGLVQPGGSLRLSCAASGFTFSHYVMHWVRQAPGKGLEWVSYIGSSGGETRYADSVKGRFTISRDNSKNTLYLQMNSLRAEDTAVYYCARADYGDYDYYYYYGMDVWGQGTTVTVSS
VL: QYELTQPPSVSVAPGQTATITCEGNNIASKSVHWYQQKPGQAPVLVVYDDRDRPSGISERISGSNSGNTPTLTIFRVEAGDEADYYCQVSDSATDHRVFGGGTKLTVL
Regarding B23, the “IC50 (nM), large scale purified Fabs” value with human MMP-12 [1] stood at 74.8 nM.

B24: 539A-M0027-E11 Fab (Fab, V domains shown)
VH: B23 VH with V33E, H35E, Y50S, G52S, E57P, R59M, A99G, D100M, Y106F
VL: DIQMTQSPDTLSLSPGERGTLSCRASQSLSSSYLAWYQQKPGQAPRLLIYDASSRATGIPDRFSGSGSGTDFTLTIGRLEPEDSAVYYCQQYGSFPLTFGGGTKVEIK
As for B24, the “IC50 (nM), large scale purified Fabs” value with human MMP-12 [1] came out at 23.9 nM.

B25: 539A-M0020-B01 IgG (antibody, V domains shown)
VH: B23 VH
VL: B23 VL
On to B25, for which the “IC50 (nM), IgGs” value with human MMP-12 [1] was 34.6 nM.

B26: 539A-M0027-E11 IgG (antibody, V domains shown)
VH: B23 VH with V33E, H35E, Y50S, G52S, E57P, R59M, A99G, D100M, Y106F
VL: B24 VL
In the case of B26, the “IC50 (nM), IgGs” value with human MMP-12 [1] was determined as 23.7 nM.
